The target in assay [1] is T1, Clostridium difficile toxin B (TcdB) (Clostridium difficile, UniProt P18177 2-2366).
T1 construct: also called TxB
Kind of assay: binding kinetics, method not stated.

Assay [2] addresses T1, Clostridium difficile toxin B (TcdB). Kind of assay: ELISA on plates coated with 1 ug/ml TcdB (TxB), OD450. A general note: An ELISA detects its analyte on a solid surface through an enzyme-linked reagent.
The target of assay [3] is T2, Clostridium difficile toxin A (TcdA) (Clostridium difficile, UniProt P16154 1-2710).
T2 construct: also called TxA; rTcdA
T2 sequence (P16154 whole entry): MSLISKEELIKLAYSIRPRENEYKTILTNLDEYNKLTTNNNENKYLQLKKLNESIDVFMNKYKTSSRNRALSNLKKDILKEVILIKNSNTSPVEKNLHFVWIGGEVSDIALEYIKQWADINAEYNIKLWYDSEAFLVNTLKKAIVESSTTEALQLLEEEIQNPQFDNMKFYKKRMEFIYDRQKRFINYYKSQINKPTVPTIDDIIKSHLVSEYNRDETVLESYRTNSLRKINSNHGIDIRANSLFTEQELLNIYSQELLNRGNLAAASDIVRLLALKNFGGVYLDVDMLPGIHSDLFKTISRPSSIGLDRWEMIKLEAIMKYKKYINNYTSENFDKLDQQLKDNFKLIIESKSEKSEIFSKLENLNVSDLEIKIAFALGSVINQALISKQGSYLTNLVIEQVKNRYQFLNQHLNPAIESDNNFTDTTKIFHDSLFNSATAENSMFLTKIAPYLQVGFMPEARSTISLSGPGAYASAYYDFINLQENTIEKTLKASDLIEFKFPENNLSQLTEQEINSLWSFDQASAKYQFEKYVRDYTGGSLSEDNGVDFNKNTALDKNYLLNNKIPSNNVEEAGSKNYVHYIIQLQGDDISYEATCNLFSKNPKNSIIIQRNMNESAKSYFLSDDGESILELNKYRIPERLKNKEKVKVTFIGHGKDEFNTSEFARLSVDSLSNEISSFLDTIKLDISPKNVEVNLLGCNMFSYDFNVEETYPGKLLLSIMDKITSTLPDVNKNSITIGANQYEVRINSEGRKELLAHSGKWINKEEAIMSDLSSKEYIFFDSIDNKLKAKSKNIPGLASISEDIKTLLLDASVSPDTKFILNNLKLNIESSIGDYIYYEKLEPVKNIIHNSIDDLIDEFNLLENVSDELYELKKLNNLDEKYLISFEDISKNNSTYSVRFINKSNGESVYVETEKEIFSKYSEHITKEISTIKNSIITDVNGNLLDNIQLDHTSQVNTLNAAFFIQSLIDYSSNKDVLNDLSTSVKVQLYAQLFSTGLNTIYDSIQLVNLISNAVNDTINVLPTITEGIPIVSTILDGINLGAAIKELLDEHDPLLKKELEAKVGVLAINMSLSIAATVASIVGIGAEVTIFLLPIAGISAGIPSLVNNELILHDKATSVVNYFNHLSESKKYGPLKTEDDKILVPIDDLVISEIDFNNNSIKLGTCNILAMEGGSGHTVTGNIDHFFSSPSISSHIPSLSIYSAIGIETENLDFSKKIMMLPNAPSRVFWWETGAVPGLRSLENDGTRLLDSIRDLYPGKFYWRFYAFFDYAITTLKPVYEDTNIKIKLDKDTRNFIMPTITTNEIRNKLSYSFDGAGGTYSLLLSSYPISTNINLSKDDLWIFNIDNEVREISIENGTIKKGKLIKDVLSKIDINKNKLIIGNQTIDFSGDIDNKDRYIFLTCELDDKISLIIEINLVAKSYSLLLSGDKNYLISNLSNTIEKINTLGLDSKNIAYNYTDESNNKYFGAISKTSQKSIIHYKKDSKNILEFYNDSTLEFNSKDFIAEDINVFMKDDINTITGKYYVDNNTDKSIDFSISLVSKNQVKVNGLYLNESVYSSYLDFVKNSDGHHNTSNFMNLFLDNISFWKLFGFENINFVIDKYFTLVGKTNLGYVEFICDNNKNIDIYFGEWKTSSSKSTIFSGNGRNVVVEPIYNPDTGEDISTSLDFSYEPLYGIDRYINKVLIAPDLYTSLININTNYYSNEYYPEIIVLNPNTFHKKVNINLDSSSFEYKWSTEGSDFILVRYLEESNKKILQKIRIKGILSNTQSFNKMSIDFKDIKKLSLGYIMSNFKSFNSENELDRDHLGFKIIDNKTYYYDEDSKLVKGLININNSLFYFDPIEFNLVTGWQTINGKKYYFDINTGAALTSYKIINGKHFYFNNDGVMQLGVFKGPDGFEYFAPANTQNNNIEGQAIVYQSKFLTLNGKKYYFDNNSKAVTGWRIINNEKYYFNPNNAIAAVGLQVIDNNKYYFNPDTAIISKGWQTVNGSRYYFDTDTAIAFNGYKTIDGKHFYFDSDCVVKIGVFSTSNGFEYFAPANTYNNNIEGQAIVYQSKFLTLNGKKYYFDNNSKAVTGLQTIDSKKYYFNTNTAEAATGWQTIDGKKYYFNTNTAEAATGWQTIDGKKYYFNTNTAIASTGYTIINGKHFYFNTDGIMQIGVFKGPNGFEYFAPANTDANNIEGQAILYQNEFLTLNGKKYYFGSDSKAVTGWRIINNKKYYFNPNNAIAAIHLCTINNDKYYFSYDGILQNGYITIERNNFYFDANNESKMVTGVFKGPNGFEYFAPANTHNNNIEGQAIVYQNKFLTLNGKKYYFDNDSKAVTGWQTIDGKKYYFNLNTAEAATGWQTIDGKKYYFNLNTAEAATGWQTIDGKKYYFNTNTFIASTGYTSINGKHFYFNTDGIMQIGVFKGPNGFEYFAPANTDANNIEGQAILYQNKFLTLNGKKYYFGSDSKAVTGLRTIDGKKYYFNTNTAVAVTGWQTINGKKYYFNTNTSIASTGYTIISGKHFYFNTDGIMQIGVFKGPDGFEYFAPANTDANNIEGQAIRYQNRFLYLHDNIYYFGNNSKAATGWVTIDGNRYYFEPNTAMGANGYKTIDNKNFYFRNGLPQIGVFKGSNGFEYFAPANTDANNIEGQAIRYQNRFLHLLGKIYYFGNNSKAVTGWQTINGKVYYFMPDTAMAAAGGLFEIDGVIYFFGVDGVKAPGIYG
Kind of assay: binding kinetics, method not stated.

T1 sequence (P18177 2-2366 limits assumed): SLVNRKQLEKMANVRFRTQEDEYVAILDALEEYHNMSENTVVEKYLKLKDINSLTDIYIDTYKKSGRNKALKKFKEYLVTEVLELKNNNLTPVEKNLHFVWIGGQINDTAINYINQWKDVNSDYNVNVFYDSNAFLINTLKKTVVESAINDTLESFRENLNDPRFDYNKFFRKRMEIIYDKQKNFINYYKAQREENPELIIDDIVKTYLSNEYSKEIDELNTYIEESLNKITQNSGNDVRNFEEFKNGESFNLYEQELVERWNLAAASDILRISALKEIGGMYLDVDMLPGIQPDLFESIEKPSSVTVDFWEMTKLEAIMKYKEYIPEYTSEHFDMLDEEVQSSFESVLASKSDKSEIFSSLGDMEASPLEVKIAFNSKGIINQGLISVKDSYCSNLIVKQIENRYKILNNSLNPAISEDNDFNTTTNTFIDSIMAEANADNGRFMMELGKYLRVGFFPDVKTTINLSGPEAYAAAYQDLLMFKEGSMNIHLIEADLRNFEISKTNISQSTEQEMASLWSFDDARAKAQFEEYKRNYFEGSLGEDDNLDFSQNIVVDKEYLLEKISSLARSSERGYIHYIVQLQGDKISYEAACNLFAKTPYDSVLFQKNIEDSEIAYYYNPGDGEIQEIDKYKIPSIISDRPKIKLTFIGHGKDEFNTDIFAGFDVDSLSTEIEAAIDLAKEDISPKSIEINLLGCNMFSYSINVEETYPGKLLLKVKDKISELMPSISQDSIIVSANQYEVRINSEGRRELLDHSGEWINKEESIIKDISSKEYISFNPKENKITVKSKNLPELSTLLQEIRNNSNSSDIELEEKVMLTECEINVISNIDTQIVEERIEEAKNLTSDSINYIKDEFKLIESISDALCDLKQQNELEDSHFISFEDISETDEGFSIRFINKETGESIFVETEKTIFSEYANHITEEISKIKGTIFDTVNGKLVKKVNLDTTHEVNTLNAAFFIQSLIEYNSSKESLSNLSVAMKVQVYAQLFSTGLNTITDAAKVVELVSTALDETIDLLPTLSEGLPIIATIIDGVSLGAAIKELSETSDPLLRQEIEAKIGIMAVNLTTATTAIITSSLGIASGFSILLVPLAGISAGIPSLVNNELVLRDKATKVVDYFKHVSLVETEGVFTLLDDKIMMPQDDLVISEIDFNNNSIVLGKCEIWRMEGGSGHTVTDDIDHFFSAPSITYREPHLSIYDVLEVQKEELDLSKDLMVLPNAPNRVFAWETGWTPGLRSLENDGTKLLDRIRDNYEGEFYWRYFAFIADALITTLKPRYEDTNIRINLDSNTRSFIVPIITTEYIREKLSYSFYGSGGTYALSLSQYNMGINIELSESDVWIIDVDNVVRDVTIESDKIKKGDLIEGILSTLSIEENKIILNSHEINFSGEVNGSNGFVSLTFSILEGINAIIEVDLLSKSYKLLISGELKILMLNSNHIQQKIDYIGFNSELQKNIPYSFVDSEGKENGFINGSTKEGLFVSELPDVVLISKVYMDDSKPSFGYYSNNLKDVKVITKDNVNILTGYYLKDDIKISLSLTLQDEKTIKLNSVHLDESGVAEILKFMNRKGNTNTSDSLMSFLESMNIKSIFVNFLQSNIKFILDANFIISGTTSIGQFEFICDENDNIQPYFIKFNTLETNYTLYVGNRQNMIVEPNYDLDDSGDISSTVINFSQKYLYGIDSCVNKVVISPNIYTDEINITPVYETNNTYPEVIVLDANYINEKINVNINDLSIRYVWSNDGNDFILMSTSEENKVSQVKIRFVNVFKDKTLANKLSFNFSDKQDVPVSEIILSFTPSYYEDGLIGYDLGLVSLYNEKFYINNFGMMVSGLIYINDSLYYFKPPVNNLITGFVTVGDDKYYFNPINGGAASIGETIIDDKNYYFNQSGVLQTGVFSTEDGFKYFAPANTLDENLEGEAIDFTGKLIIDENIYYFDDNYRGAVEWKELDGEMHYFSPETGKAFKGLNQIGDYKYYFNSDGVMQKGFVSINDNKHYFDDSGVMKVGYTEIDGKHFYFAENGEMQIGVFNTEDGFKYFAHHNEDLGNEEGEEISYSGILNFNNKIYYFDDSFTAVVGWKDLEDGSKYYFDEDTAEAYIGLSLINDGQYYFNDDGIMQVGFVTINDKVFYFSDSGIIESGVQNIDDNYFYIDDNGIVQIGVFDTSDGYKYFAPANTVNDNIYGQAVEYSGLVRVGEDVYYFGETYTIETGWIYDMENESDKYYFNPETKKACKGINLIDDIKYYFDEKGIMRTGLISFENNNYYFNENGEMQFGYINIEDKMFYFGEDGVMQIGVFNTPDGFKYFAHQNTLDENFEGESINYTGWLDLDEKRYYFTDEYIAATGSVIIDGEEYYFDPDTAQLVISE

B1: ABAB binding agent (AH3/5D/AA6/E3, tetra-specific tetrameric VHH) (designed binder)
chain: QVQLVETGGGLVQPGGSLRLSCAASGFTLDYSSIGWFRQAPGKEREGVSCISSSGDSTKYADSVKGRFTTSRDNAKNTVYLQMNSLKPDDTAVYYCAAFRATMCGVFPLSPYGKDDWGKGTLVTVSSGGGGSGGGGSGGGGSQVQLVESGGGLVQPGGSLRLSCEASGFTLDYYGIGWFRQPPGKEREAVSYISASARTILYADSVKGRFTISRDNAKNAVYLQMNSLKREDTAVYYCARRRFSASSVNRWLADDYDVWGRGTQVAVSSGGGSGGGSGGGSGGGSQLQLVETGGGLVQPGGSLRLSCAASGFTFSDYVMTWVRQAPGKGPEWIATINTDGSTMRDDSTKGRFTISRDNAKNTLYLQMTSLKPEDTALYYCARGRVISASAIRGAVRGPGTQVTVSSGGGGSGGGGSGGGGSQVQLVESGGGLVQTGGSLRLSCASSGSIAGFETVTWSRQAPGKSLQWVASMTKTNNEIYSDSVKGRFIISRDNAKNTVYLQMNSLKPEDTGVYFCKGPELRGQGIQVTVSS
notes: also called r-ABAB; recombinant ABAB
In assay [1], B1 came in with a Kd of 0.002 nM, a koff of 3.57e-06 s⁻¹ and a kon of 1.79e+06 M⁻¹ s⁻¹.

B2: VHH peptide monomer 5D (VHH)
VHH: QVQLVESGGGLVQPGGSLRLSCEASGFTLDYYGIGWFRQPPGKEREAVSYISASARTILYADSVKGRFTISRDNAKNAVYLQMNSLKREDTAVYYCARRRFSASSVNRWLADDYDVWGRGTQVAVSS
Regarding B2, in assay [1], the affinity, expressed as Kd, was 0.65 nM; the koff came out at 0.000994 s⁻¹; the kon was found to be 1.52e+06 M⁻¹ s⁻¹.

B3: VHH peptide monomer E3 (VHH)
VHH: QVQLVESGGGLVQTGGSLRLSCASSGSIAGFETVTWSRQAPGKSLQWVASMTKTNNEIYSDSVKGRFIISRDNAKNTVYLQMNSLKPEDTGVYFCKGPELRGQGIQVTVSS
notes: also called VHH E3
As to B3, in assay [1], the Kd is 0.03 nM, the koff is 9.4e-05 s⁻¹ and the kon was 2.95e+06 M⁻¹ s⁻¹. For the same molecule, the “EC50 (read off the curve)” value in assay [2] was approximately 20 ng/mL.

B4: VHH peptide monomer AH3 (VHH)
VHH: QVQLVETGGLVQPGGSLRLSCAASGFTLDYSSIGWFRQAPGKEREGVSCISSSGDSTKYADSVKGRFTTSRDNAKNTVYLQMNSLKPDDTAVYYCAAFRATMCGVFPLSPYGKDDWGKGTLVTVSS
notes: also called VHH AH3
In assay [3], B4 yielded a Kd of 32 nM, a koff of 0.00071 s⁻¹ and a kon of 22000 M⁻¹ s⁻¹.

As usually defined, the Kd is the free concentration of one partner at which half of the binding sites on the other are occupied at equilibrium, for simple one-to-one binding. One may read the koff as the rate constant with which the complex falls apart. Read a low koff as a long-lived complex. As usually defined, the kon is the second-order rate constant of association. The low end stands for slower complex formation, the high end for faster complex formation. What is called EC50 (read off the curve) is the concentration that produces a half-maximal response.

Values taken from US20180319872A1 (UNIVERSITY OF MARYLAND BALTIMORE, published 2018).
